Like-named read-outs stand apart in the source and are kept apart here.
Tests used:
[1] = In vivo pharmacokinetic study in mice (i.v. or s.c.), FAC and payload in blood; design: species or system mouse; conditions: for AUC: male, C57/B16, whole blood
Experimental: (§1) Pharmacokinetic studies were conducted in male C57/B16 mice; male Sprague-Dawley rats; male Beagle dogs and male Cynomolgus monkeys. 3 animals per group were used for each study performed. All studies were performed in accordance with local animal welfare regulations.
[…] Serial 30 µL blood samples were collected via venipuncture of the tail vein in mouse, and via the cannulated jugular vein in rats at defined timepoints to 216 hours (into EDTA coated tubes).
(§2) Each blood sample was precipitated with acetonitrile containing internal standard; samples were mixed and centrifuged (20 minutes 4000 RPM at 4° C.). Supernatant was transferred to a microwell plate and evaporated under nitrogen at 60° C. Residue was resuspended in acetonitrile/water (7:3 v/v); plate sealed and transferred to an ultrasonic bath for 3 minutes, prior to analysis. Quantification was performed by LC-MS/MS (SciexAP16500 Q-trap, Shimadzu Nexera X2) using a Phenomenex Polar RP analytical column (2.5 μm particle size; 50×2 mm). The mobile phase consisted of solvent A (0.1% formic acid in water) and solvent B (0.1% formic acid in acetonitrile). The fatty acid conjugate and API were detected using multiple reaction monitoring.
(§3) Data analysis and calculation of non-compartmental pharmacokinetic parameters was
(§4) performed using an in-house analysis. Following intravenous administration whole blood clearance was calculated by the dose administered divided by AUC0-inf. Volume of distribution at steady state was calculated as MRT*CL, where MRT is the mean residence time, calculated by AUMC0-inf/AUC0-inf. The half-life (t1/2) of the terminal elimination phase was calculated by 0.693/λ. For both intravenous and subcutaneous administration, the systemic exposures were determined by calculating the area under the blood concentration time curve (AUC) from time zero to the last observed quantifiable concentration (AUClast) by using the linear trapezoidal method and normalised to dose. Extrapolated AUC (AUC0-inf) is calculated by addition of AUClast and AUCtlast-inf; where AUCtlast-inf is calculated based on Clast/λ. The slope of the terminal elimination phase was estimated by linear regression of the terminal data points (minimum 3 points) from a natural log concentration versus time plot of the data. Bioavailability was calculated as the dose normalized ratio of […] AUCinf to intravenous AUCinf (100*[SC AUCinf/SC dose]/[IV AUCinf/IV dose]). Following subcutaneous administration Cmax is calculated as the average maximum observed peak concentration and Tmax is the time associated with the determined Cmax.
For PK experiments, non-tumor bearing mice or rats were treated once (10 mL/kg) with a compound either i.v. or s.c. Serial blood samplings from the tail vein (5-20 μl) were collected during the course of the experiment. For PK/PD experiments in tumor-bearing mice, compound was administered once (10 mL/kg) either i.v. or s.c. Animals were randomized into groups of n=3 and tissue samples were collected at several time points. At the times indicated, animals were anaesthetized by exposure to 2-3% v/v isoflurane in medical oxygen. They were sacrificed without recovering from anesthetic after blood sampling into commercially prepared EDTA coated tubes (Milian, cat #TOM-14C) in order to extract plasma. The tissues were excised, weighted and rapidly frozen in liquid nitrogen. Later, tumors were cryogenic dry pulverized with the CryoPrep™ system (model CP-02, Covaris). For efficacy experiments in ectopic tumor-bearing mice, animals were randomized into groups of n=6 for a mean tumor size of 100 mm^3 and compound was administered either i.v. q3w or s.c. q2w. When implanted in brain, animals were randomized into groups of n=4 for a mean bioluminescence of 1.0-2.0E+06 [p/s]/[ρW/cm^2] and compound was administered i.v. qw. Tumor response were reported with the measures of tumor volumes or bioluminescence from the treatment start. […]

[2] = BTK FAC plasma stability assay, PBS buffer arm; format: physicochemical; conditions: for Plasma stability (h) PBS: incubation to 24 h
Summary of the method: (§5)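 Compound from a 500 µM acetonitrile:water working solution was spiked into K3-EDTA plasma or Dulbecco's PBS and incubated with shaking at 38 °C. Samples taken at 0, 2, 6 and 24 h were precipitated with cold acetonitrile containing glyburide internal standard. Semi-quantitative LC-MS/MS used analyte:internal standard peak area ratios.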

[3] = BTK FAC plasma stability assay, mouse plasma; format: in vitro ADME
Summary of the method: as §5

[4] = BTK FAC plasma stability assay, rat plasma; format: in vitro ADME
Summary of the method: as §5

[5] = BTK FAC plasma stability assay, dog plasma; format: in vitro ADME
[6] = In vivo pharmacokinetic study in Beagle dogs (i.v. or s.c.), FAC and payload in blood; design: species or system dog
Experimental: as §1
Between 1 and 10 µM/kg FAC was administered either intravenously or subcutaneously as a solution in 10 mM PBS with NaOH (dose volume 0.4 mL/kg in dog and monkey s.c. and 0.2 mL/kg i.v. in monkey). Serial 100 µL blood samples were collected via venipuncture of the cephalic vein at defined timepoints to 336 hours (into EDTA coated tubes).
as §2, §3, §4

[7] = BTK FAC plasma stability assay, cyno plasma; format: in vitro ADME, cynomolgus monkey
BTK C481S = molecular target: T1, BTK C481S (Homo sapiens, UniProt Q06187, C481S); experiment: PD screen in TMD8 BTK C481S mutant tumor-bearing mice, BTK levels and compound concentrations in blood and tumor; format: in vivo, mouse
T1 construct: endogenous in cells; host or cells: TMD8 BTK C481S mutant tumour xenografts in mice
Summary of the method: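 Single compound injection in mice bearing TMD8 BTK C481S tumors, groups of 2, with blood and tumor sampled at day 0, 4, 7 and sometimes 10. Compound levels measured by UPLC/MS-MS and BTK levels by Meso Scale Discovery.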

T1 sequence (Q06187 whole entry C481S): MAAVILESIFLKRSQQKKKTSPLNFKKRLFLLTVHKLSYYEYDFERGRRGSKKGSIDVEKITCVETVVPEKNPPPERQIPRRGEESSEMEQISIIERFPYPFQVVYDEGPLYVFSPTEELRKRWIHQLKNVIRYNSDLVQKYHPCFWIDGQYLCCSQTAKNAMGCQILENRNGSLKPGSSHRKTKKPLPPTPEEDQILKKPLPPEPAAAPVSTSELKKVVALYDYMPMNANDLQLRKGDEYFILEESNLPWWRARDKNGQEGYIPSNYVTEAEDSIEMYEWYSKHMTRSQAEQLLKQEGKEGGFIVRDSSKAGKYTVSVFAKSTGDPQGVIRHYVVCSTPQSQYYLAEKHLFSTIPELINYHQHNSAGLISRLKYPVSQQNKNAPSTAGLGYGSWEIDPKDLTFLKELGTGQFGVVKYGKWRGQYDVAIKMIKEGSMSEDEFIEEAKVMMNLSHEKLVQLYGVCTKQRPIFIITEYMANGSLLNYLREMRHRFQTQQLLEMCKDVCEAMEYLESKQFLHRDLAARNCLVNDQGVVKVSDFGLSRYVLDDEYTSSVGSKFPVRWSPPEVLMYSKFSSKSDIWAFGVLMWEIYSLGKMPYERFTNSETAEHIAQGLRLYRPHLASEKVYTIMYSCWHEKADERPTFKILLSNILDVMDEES

| SMILES | % Release of degrader after 24 h PBS [2] | Plasma stability (h) PBS [2] | % Release of degrader after 24 h mouse [3] | Plasma stability (h) mouse ([3]; incubation to 24 h) | % Release of degrader after 24 h rat [4] | Plasma stability (h) rat ([4]; incubation to 24 h) | Plasma stability (h) dog [5] | % Release of degrader after 24 h dog [5] | Plasma stability (h) cyno [7] | % Release of degrader after 24 h cyno [7] | Duration of BTK degradation in mouse ≥90% (BTK C481S; i.v., 50 umol/kg) | also measured |
| --- | --- | --- | --- | --- | --- | --- | --- | --- | --- | --- | --- | --- |
| COc1ccc(C(=O)N2CCC3(CCN(CCc4ccc(-c5cc6c(-c7cc(F)cc(NC(=O)N8C[C@H](CC(C)C)[C@@H](O)C8)c7C)ncnc6[nH]5)cc4)CC3)CC2)cc1N1CCC(=O)NC1=O [Compound Va, (3R,4S)—N-(3-(6-(4-(2-(9-(3-(2,4-dioxotetrahydropyrimidin-1(2H)-yl)-4-methoxybenzoyl)-3,9-diazaspiro[5.5]undecan-3-yl)ethyl)phenyl)-7H-pyrrolo[2,3-d]pyrimidin-4-yl)-5-fluoro-2-methylphenyl)-3-hydroxy-4-isobutylpyrrolidine-1-carboxamide] | – | – | – | – | – | – | – | – | – | – | – | Payload C0-uM (unconjugated degrader dosed, first payload cell) ([1]; API i.v., listed as note (20 mg/kg), species taken as mouse): 16.7 µM; AUC ([1]; iv, API i.v., listed as note (20 mg/kg), species taken as mouse, read-out: Payload AUC-uM.h (unconjugated degrader dosed, first payload cell)): 15.2 µM·h; AUC ([1]; sc, mouse, subcutaneous dosing, unconjugated Compound Va at 20 mg/kg, read-out: Payload AUC): 15.2 µM·h |
| CCCCCCCCCCCN(C(=O)CCCCCCCCCC(=O)O)C(CCC(=O)NCCOCCOCCOCCOCCOCCOCCOCCOCCOCCOCCOCCOCCC(=O)NCC(=O)OC(C)(C)c1ccc(C(=O)Nc2cc(F)cc(-c3ncnc4[nH]c(-c5ccc(CCN6CCC7(CC6)CCN(C(=O)c6ccc(OC)c(N8CCC(=O)NC8=O)c6)CC7)cc5)cc34)c2C)c(F)c1)C(=O)O (stereo not drawn) [Example A1, 50-Carboxy-2-(4-((3-(6-(4-(2-(9-(3-(2,4-dioxotetrahydropyrimidin-1(2H)-yl)-4-methoxybenzoyl)-3,9-diazaspiro[5.5]undecan-3-yl)ethyl)phenyl)-7H-pyrrolo[2,3-d]pyrimidin-4-yl)-5-fluoro-2-methylphenyl)carbamoyl)-3-fluorophenyl)-2-methyl-4,7,47,52-tetraoxo-51-undecyl-3,10,13,16,19,22,25,28,31,34,37,40,43-tridecaoxa-6,46,51-triazadohexacontan-62-oic acid] | 1% | >48 h | 15.1% | 28 h | 17.4% | 34.8 h | >48 h | 14.6% | – | – | – | C0 ([6]; analyte FAC, FAC i.v. dose 1 umol/kg, read-out: FAC C0-uM dog): 27.2 µM; AUC ([6]; male, Beagle, dog, whole blood, iv, analyte FAC, FAC i.v. dose 1 umol/kg, read-out: FAC AUC-uM.h dog): 6.8 µM·h; C0 ([6]; male, Beagle, whole blood, sc, dog, subcutaneous dosing, FAC s.c. dose 1 umol/kg, read-out: FAC C0): 0.28 µM |
| CCCCCCCCCCCN(C(=O)CCCCCCCCCC(=O)O)C(CCC(=O)NCCOCCOCCOCCOCCOCCOCCOCCOCCOCCOCCOCCOCCC(=O)N(CC)CC(=O)OC(C)(C)c1ccc(C(=O)Nc2cc(F)cc(-c3ncnc4[nH]c(-c5ccc(CCN6CCC7(CC6)CCN(C(=O)c6ccc(OC)c(N8CCC(=O)NC8=O)c6)CC7)cc5)cc34)c2C)c(F)c1)C(=O)O (stereo not drawn) [Example A13, 50-Carboxy-2-(4-((3-(6-(4-(2-(9-(3-(2,4-dioxotetrahydropyrimidin-1(2H)-yl)-4-methoxybenzoyl)-3,9-diazaspiro[5.5]undecan-3-yl)ethyl)phenyl)-7H-pyrrolo[2,3-d]pyrimidin-4-yl)-5-fluoro-2-methylphenyl)carbamoyl)-3-fluorophenyl)-6-ethyl-2-methyl-4,7,47,52-tetraoxo-51-undecyl-3,10,13,16,19,22,25,28,31,34,37,40,43-tridecaoxa-6,46,51-triazadohexacontan-62-oic acid] | 1.4% | >48 h | 3.7% | >48 h | 2% | >48 h | >48 h | 2.7% | >48 h | 2.5% | 7 days | – |
| CCCCCCCCCCCN(C(=O)CCCCCCCCCCO)C(CCC(=O)NCCOCCOCCOCCOCCOCCOCCOCCOCCOCCOCCOCCOCCC(=O)NCCC(=O)NCCC(=O)OC(C)(C)c1ccc(C(=O)Nc2cc(F)cc(-c3ncnc4[nH]c(-c5ccc(CCN6CCC7(CC6)CCN(C(=O)c6ccc(OC)c(N8CCC(=O)NC8=O)c6)CC7)cc5)cc34)c2C)c(F)c1)C(=O)O (stereo not drawn) [Example A5, 2-(4-((3-(6-(4-(2-(9-(3-(2,4-Dioxotetrahydropyrimidin-1(2H)-yl)-4-methoxybenzoyl)-3,9-diazaspiro[5.5]undecan-3-yl)ethyl)phenyl)-7H-pyrrolo[2,3-d]pyrimidin-4-yl)-5-fluoro-2-methylphenyl)carbamoyl)-3-fluorophenyl)-55-(11-hydroxy-N-undecylundecanamido)-2-methyl-4,8,12,52-tetraoxo-3,15,18,21,24,27,30,33,36,39,42,45,48-tridecaoxa-7,11,51-triazahexapentacontan-56-oic acid] | 0.1% | >48 h | 2% | – | 2.5% | – | – | 1% | – | 0.5% | – | half-life at 5 µM ([3]; incubation to 24 h): > 48 h; half-life at 5 µM ([4]; incubation to 24 h): > 48 h; half-life at 5 µM ([5]; read-out: Plasma stability (h) dog (converted)): > 48 h; half-life at 5 µM ([7]; monkey, read-out: Plasma stability (h) cyno): > 48 h; Duration of BTK degradation in mouse ≥90% (BTK C481S; i.v., 25 umol/kg): 10 days; Duration of BTK degradation in mouse ≥90% (BTK C481S; s.c., 25 umol/kg): 10 days |
| CCCCCCCCCCCN(C(=O)CCCCCCCCCC(=O)O)C(CCC(=O)NCCOCCOCCOCCOCCOCCOCCOCCOCCOCCOCCOCCOCCC(=O)N1CCC(CC(=O)OC(C)(C)c2ccc(C(=O)Nc3cc(F)cc(-c4ncnc5[nH]c(-c6ccc(CCN7CCC8(CC7)CCN(C(=O)c7ccc(OC)c(N9CCC(=O)NC9=O)c7)CC8)cc6)cc45)c3C)c(F)c2)CC1)C(=O)O (stereo not drawn) [Example A21, 44-Carboxy-1-(4-(2-((2-(4-((3-(6-(4-(2-(9-(3-(2,4-dioxotetrahydropyrimidin-1(2H)-yl)-4-methoxybenzoyl)-3,9-diazaspiro[5.5]undecan-3-yl)ethyl)phenyl)-7H-pyrrolo[2,3-d]pyrimidin-4-yl)-5-fluoro-2-methylphenyl)carbamoyl)-3-fluorophenyl)propan-2-yl)oxy)-2-oxoethyl)piperidin-1-yl)-1,41,46-trioxo-45-undecyl-4,7,10,13,16,19,22,25,28,31,34,37-dodecaoxa-40,45-diazahexapentacontan-56-oic acid] | 0.2% | >48 h | 1.9% | >48 h | 0.5% | >48 h | >48 h | 0.3% | >48 h | 0.4% | <4 days | – |

— US20240216513A1, “FATTY ACID-BIFUNCTIONAL DEGRADER CONJUGATES AND THEIR METHODS OF USE” (Novartis AG, priority 2021, published 2024)
